From US20250092151A1 (ALTRUBIO, published 2025) come the findings set out here.

The target of assay [1] is T1, human P-selectin glycoprotein ligand-1 (PSGL-1), expressed on Sp2/0-hPSGL-1 cells (human, UniProt Q14242 42-412).
T1 construct: Sp2/0 cells transfected with human PSGL-1; also called human PSGL-1; SELPLG
T1 sequence: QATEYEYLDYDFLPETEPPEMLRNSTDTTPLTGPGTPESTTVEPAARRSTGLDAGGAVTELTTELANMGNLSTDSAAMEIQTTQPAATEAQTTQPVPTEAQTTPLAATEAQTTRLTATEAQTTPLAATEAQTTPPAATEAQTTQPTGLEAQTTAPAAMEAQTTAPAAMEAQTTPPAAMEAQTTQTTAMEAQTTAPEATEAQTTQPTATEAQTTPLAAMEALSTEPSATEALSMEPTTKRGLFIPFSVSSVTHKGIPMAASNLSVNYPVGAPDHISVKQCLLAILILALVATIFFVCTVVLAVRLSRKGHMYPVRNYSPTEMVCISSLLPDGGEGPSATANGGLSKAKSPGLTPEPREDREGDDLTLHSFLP
In words: flow cytometry on Sp2/0-hPSGL-1 cells, antibody at 0.3 µg/mL. As to the method: (§1) Sp2/0 cells transfected with human PSGL-1 (Sp2/0-hPSGL1) were used as the PSGL-1 expressing cell line. Sp2/0-hPSGL1 cells were centrifuged at 1200 rpm for 5 min. The cell pellets were resuspended in FACS buffer (PBS containing 1% FBS) and pipetted into 96 well plate (1×10⁵ cells/well). To each well was added 100 μl of supernatants containing humanized 15A7H (h15A7H)/tetravalent antibodies, and these were incubated for 60 min at 4° C. The cells were washed three times with cold FACS buffer and then incubated with 100 μl of Mouse Anti-Human IgG₄ pFc′-PE (SouthernBiotech Cat. no. 9190-09) at 1 μg/ml concentration for 60 min at 4° C. Subsequently, the cells were washed three times with cold FACS buffer and analyzed by FACS analysis. All flow cytometric analyses were performed on a BD-LSR flow cytometer (Becton Dickinson) using the Cell Quest software.
(§2) The binding ability of h15A7H tetravalent antibodies was evaluated in human PSGL-1 SP2/O cells. The h15A7H tetravalent antibody bound positively to the SP2/O-hPSGL-1, but not to parental SP2/O cell lacking of hPSGL-1 antigen (Table A below). Additionally, wild type h15A7H and all of h15A7H tetravalent antibodies gave similar binding activity on SP2/O-hPSGL-1 (Table A).

Assay [2] concerns the target T1, human P-selectin glycoprotein ligand-1 …. In words: flow cytometry on Sp2/0-hPSGL-1 cells, antibody at 1 µg/mL. As to the method:
as §1, §2

Assay [3] shares this target. In words: cell-based or functional assay.
For assay [4] the target is unchanged. In words: flow cytometry on Sp2/0-hPSGL-1 cells, antibody at 0.1 µg/mL. As to the method: as §1, §2
Assay [5] shares this target. The assay is described as follows: flow cytometry on Sp2/0-hPSGL-1 cells, antibody at 3 µg/mL. As to the method:
as §1, §2

B1: h15A7H (antibody, IgG4, V domains shown)
VH: EVQLVESGGGLVQPGGSLRLSCAASGFTFSSFGMHWVRQAPGKGLEWVAYINGGSSTIFYANAVKGRFTISRDNAKNTLYLQMNSLRAEDTAVYYCARYASYGGGAMDYWGQGTLVTVSS
VL: DIQMTQSPSSLSASVGDRVTITCRSSQSIVHNDGNTYFEWYQQKPGKAPKLLIYKVSNRFSGVPSRFSGSGSGTHFTLTISSLQPEDFATYYCFQGSYVPLTFGQGTKVEIK
notes: Bivalent humanized IgG4 kappa antibody with the S228P hinge mutation; also called humanized 15A7H; wild type h15A7H; not shown: human immunoglobulin kappa light chain constant region
As for B1, the mean fluorescence intensity in assay [1] was 5940 MFI; in assay [2], 6400 MFI; in assay [4], 3410 MFI; in assay [5] it was 4670 MFI. Moreover, the “Apoptosis % (background subtracted, n = 4), mean, at 0.0625 µg/mL, SP2/O-hPSGL-1 cells, Annexin V/PI” value in assay [3] was found to be 1.5%. In addition, the “Apoptosis % (background subtracted, n = 4), mean, at 0.5 µg/mL, SP2/O-hPSGL-1 cells, Annexin V/PI” value in assay [3] is 2.75%.

B2: h15A7H LC-scFv2-IgG4p (antibody)
light: DIQMTQSPSSLSASVGDRVTITCRSSQSIVHNDGNTYFEWYQQKPGKAPKLLIYKVSNRFSGVPSRFSGSGSGTHFTLTISSLQPEDFATYYCFQGSYVPLTFGQGTKVEIKRTVAAPSVFIFPPSDEQLKSGTASVVCLLNNFYPREAKVQWKVDNALQSGNSQESVTEQDSKDSTYSLSSTLTLSKADYEKHKVYACEVTHQGLSSPVTKSFNRGECGGGGSGGGGSEVQLVESGGGLVQPGGSLRLSCAASGFTFSSFGMHWVRQAPGKCLEWVAYINGGSSTIFYANAVKGRFTISRDNAKNTLYLQMNSLRAEDTAVYYCARYASYGGGAMDYWGQGTLVTVSSGGGGSGGGGSGGGGSGGGGSGGGGSDIQMTQSPSSLSASVGDRVTITCRSSQSIVHNDGNTYFEWYQQKPGKAPKLLIYKVSNRFSGVPSRFSGSGSGTHFTLTISSLQPEDFATYYCFQGSYVPLTFGCGTKVEIKAAAHHHHHHHHHH
heavy: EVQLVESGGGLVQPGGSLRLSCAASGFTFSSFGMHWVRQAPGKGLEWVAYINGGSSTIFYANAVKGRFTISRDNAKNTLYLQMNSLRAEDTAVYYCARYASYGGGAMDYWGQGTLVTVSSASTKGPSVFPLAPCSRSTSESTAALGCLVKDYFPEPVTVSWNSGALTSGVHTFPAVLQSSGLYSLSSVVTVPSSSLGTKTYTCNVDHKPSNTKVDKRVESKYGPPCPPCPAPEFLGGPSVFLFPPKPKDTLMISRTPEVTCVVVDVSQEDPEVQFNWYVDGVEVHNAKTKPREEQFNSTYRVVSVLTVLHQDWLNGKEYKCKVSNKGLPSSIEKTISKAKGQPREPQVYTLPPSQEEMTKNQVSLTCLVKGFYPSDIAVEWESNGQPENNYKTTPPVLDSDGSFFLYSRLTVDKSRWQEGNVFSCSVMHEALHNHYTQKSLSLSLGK
notes: Tetravalent: a v2 scFv fused to the C-terminus of each kappa light chain of h15A7H IgG4p
On to B2, for which the mean fluorescence intensity in assay [1] is 3480 MFI; in assay [2], 5820 MFI; in assay [4], 3040 MFI; in assay [5] it was 6030 MFI. For the same molecule, the “Apoptosis % (background subtracted, n = 4), mean, at 0.0625 µg/mL, SP2/O-hPSGL-1 cells, Annexin V/PI” value in assay [3] turned out to be 0.5%. Also, the “Apoptosis % (background subtracted, n = 4), mean, at 0.5 µg/mL, SP2/O-hPSGL-1 cells, Annexin V/PI” value in assay [3] turned out to be 18%.

B3: h15A7H scFv2-LC-IgG4p (antibody)
light: EVQLVESGGGLVQPGGSLRLSCAASGFTFSSFGMHWVRQAPGKCLEWVAYINGGSSTIFYANAVKGRFTISRDNAKNTLYLQMNSLRAEDTAVYYCARYASYGGGAMDYWGQGTLVTVSSGGGGSGGGGSGGGGSGGGGSGGGGSDIQMTQSPSSLSASVGDRVTITCRSSQSIVHNDGNTYFEWYQQKPGKAPKLLIYKVSNRFSGVPSRFSGSGSGTHFTLTISSLQPEDFATYYCFQGSYVPLTFGCGTKVEIKASTGSGGGGSDIQMTQSPSSLSASVGDRVTITCRSSQSIVHNDGNTYFEWYQQKPGKAPKLLIYKVSNRFSGVPSRFSGSGSGTHFTLTISSLQPEDFATYYCFQGSYVPLTFGQGTKVEIKRTVAAPSVFIFPPSDEQLKSGTASVVCLLNNFYPREAKVQWKVDNALQSGNSQESVTEQDSKDSTYSLSSTLTLSKADYEKHKVYACEVTHQGLSSPVTKSFNRGEC
heavy: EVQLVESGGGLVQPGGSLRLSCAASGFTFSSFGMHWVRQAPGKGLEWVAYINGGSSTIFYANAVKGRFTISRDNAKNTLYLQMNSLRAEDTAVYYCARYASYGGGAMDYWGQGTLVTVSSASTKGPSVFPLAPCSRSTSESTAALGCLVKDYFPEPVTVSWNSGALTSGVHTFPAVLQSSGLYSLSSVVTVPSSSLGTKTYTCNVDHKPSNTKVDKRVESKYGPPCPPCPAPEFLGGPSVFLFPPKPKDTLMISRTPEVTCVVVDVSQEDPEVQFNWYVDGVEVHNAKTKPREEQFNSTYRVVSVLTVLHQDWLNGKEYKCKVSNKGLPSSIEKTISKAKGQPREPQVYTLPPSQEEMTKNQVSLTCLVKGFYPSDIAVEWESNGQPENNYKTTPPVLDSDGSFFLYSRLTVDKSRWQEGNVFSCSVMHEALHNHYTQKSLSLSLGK
notes: Tetravalent: a v2 scFv fused to the N-terminus of each kappa light chain of h15A7H IgG4p
B3: the mean fluorescence intensity amounted to 7060 MFI in assay [1], 5740 MFI in assay [2], 5540 MFI in assay [4] and 4380 MFI in assay [5]. The “Apoptosis % (background subtracted, n = 4), mean, at 0.0625 µg/mL, SP2/O-hPSGL-1 cells, Annexin V/PI” value in assay [3] was 15.5%. For the same molecule, in assay [3], the “Apoptosis % (background subtracted, n = 4), mean, at 0.5 µg/mL, SP2/O-hPSGL-1 cells, Annexin V/PI” value was determined as 23.8%.

B4: h15A7H scFv4-crIgG4p (antibody)
light: EVQLVESGGGLVQPGGSLRLSCAASGFTFSSFGMHWVRQAPGKCLEWVAYINGGSSTIFYANAVKGRFTISRDNAKNTLYLQMNSLRAEDTAVYYCARYASYGGGAMDYWGQGTLVTVSSGGGGSGGGGSGGGGSGGGGSGGGGSDIQMTQSPSSLSASVGDRVTITCRSSQSIVHNDGNTYFEWYQQKPGKAPKLLIYKVSNRFSGVPSRFSGSGSGTHFTLTISSLQPEDFATYYCFQGSYVPLTFGCGTKVEIKRTVAAPSVFIFPPSDEQLKSGTASVVCLLNNFYPREAKVQWKVDNALQSGNSQESVTEQDSKDSTYSLSSTLTLSKADYEKHKVYACEVTHQGLSSPVTKSFNRGEC
heavy: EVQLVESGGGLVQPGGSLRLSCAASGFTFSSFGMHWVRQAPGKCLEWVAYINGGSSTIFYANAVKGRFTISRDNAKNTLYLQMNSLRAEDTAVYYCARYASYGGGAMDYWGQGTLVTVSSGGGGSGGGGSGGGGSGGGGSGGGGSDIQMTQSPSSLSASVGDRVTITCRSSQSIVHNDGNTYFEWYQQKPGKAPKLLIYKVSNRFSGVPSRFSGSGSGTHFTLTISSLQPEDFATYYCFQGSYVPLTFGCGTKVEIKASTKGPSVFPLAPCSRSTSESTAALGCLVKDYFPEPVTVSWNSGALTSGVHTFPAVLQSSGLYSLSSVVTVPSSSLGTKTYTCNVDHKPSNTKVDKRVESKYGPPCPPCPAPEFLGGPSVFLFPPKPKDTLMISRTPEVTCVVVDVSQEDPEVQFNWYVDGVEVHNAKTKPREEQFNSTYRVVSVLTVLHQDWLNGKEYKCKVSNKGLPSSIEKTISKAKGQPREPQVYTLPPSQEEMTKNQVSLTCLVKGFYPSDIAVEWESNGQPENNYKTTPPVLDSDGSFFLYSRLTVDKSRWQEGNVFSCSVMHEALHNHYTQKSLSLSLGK
notes: Tetravalent: four v2 scFv units fused without a linker to the N-termini of the kappa and IgG4p constant regions
As to B4, the mean fluorescence intensity in assay [1] was found to be 4640 MFI; in assay [2] it was 6010 MFI; in assay [4] it was 2640 MFI; in assay [5] it was 5940 MFI. For the same molecule, the “Apoptosis % (background subtracted, n = 4), mean, at 0.0625 µg/mL, SP2/O-hPSGL-1 cells, Annexin V/PI” value in assay [3] worked out at 1.75%. Also, the “Apoptosis % (background subtracted, n = 4), mean, at 0.5 µg/mL, SP2/O-hPSGL-1 cells, Annexin V/PI” value in assay [3] turned out to be 35.8%.
